What all share (assay): ELISA, coated antigen, OD450
(ELISA stands for enzyme-linked immunosorbent assay.)

In assay [1] the target is Mature Activin A (human) (UniProt P08476).
Assay [2] has as its target T1, Inhibin A (Homo sapiens (Human)) (UniProt P05111).
T1 sequence 1: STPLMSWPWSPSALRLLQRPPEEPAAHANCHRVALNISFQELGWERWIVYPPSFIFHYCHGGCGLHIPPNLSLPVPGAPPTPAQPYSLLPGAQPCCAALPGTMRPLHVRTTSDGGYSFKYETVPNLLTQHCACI
T1 sequence 2: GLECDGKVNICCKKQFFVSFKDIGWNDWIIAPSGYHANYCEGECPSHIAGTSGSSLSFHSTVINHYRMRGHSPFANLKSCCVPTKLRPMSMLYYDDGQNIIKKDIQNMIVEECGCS

In assay [3] the target is T2, Activin B (Homo sapiens (Human)) (UniProt P09529).
T2 sequence: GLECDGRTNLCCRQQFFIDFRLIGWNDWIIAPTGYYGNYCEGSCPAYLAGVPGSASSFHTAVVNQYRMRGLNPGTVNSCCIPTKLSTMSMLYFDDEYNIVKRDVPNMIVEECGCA

B1: AB330 (antibody, IgG1, V domains shown)
VH: QVQLVQSGAEVKKPGASVKVSCKVSGYPSPATISWVRQAPGKGLEWMGWMNPKSGYTNYAQKFQGRVTMTEDTSTDTAYMELSSLKSEDTAVYYCATLHGSGLAFDIWGQGTMVTVSS
VL: DIQMTQSPSSVSASVGDRVTITCRASQDIKSDLAWYQQKPGKAPKLLIYRASARESGVPSRFSGSGSGTDFTLTISSLQPEDFANYYCQQYRSFPWSFGGGTKVEIK
In assay [1], B1 showed a fold-change of OD 450 over negative control (BSA) of 1.39 fold.

B2: AB439 (antibody, IgG1, V domains shown)
VH: EVQLVQSGAEVKKPGASVKVSCKASGYTYTGYRISWVRQAPGQGLEWMGWIDPKSGRTNYAQKLQGRGTMTTDPSTSTAYMELRSLRSDDTAVYYCAREVKQWLVPGRGVYWFDPWGQGTLVTVSS
VL: ESALTQPASVSGSPGQSITISCTGTNIGLRSVSWYQQHPGKAPKLMIYDTNIRSSGVSNRFSGSKSGNTASLTISGLQAEDEADYYCSSYTSSSTDVFGGGTKLTVL
Turning to B2, the fold-change of OD 450 over negative control (BSA) in assay [2] is 1.38 fold; in assay [3], 1.17 fold.
